According to patent US20230322953A1 (HARBOUR BIOMED SHANGHAI, published 2023):

What was measured:
[1] = biological target: T1, human CTLA4 on cells (CHO-K1/hCTLA4; HEK293/hCTLA4; 293F-hCTLA4) (human, UniProt P16410 36-223); assay: FACS, CHO-K1/hCTLA4 cells (Test 2)
T1 construct: whole, on cells

[2] = biological target: T2, human PD-L1 on cells (CHO-K1/hPDL1; MDA-MB-231) (human, UniProt Q9NZQ7 19-290); assay: FACS, CHO-K1/hPDL1 cells (Experiment 2)
T2 construct: whole, on cells

[3] = biological target: T1, human CTLA4 on cells (CHO-K1/hCTLA4; …); assay: FACS, HEK293/hCTLA4 cells
[4] = biological target: T2, human PD-L1 on cells (CHO-K1/hPDL1; …); assay: competition FACS: biotinylated PD-1 to CHO-K1/hPDL1 cells (Experiment 2)
[5] = biological target: T3, human PD-L1 (programmed death ligand 1) (human, UniProt Q9NZQ7 19-290); assay: flow cytometry (FACS) on CHO-K1/hPDL1 cells, Experiment 1
T3 construct: whole, on cells; also called hPDL1; CD274
T3 sequence (Q9NZQ7 19-290): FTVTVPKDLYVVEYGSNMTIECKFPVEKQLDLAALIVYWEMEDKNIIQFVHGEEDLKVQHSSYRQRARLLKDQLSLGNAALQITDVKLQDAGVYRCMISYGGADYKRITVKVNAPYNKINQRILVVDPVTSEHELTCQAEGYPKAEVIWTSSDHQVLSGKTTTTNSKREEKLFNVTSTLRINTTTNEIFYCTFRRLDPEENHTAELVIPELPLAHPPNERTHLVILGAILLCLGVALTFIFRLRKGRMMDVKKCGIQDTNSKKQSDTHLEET

[6] = biological target: T4, human 4-1BB (tumor necrosis factor receptor superfamily member 9) (human, UniProt Q07011 24-255); assay: flow cytometry (FACS) on CHO-K1/hu 4-1BB cells
T4 construct: whole, on cells; also called hu 4-1BB; CD137
T4 sequence (Q07011 24-255): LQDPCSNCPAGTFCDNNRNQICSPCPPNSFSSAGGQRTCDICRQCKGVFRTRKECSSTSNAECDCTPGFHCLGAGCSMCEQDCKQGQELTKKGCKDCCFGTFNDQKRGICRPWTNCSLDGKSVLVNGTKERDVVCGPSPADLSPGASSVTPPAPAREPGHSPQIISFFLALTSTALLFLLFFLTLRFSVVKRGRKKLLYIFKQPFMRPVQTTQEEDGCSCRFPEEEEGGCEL

[7] = biological target: T5, biotinylated human BCMA-Fc, Avitag recombinant protein (ACRO Biosystems, #BC7-H82F0) (human, UniProt Q02223 1-54, biotinylated); assay: BLI (Octet Red96e), biotinylated BCMA-Fc on SA sensor, antibody in solution, 1:1 global fit
T5 construct: extracellular domain; Bought protein; also called human BCMA protein; recombinant human BCMA-ECD-Fc; not shown: Fc of the bought fusion protein; Avitag
T5 sequence (looked up): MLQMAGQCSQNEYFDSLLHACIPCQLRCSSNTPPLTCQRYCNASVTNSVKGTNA

[8] = biological target: T6, human BCMA (human, UniProt Q02223 1-184); assay: flow cytometry, NCI-H929 cells
T6 construct: whole, on cells; the cell line is named under assay; also called TNFRSF17; CD269
T6 sequence (looked up): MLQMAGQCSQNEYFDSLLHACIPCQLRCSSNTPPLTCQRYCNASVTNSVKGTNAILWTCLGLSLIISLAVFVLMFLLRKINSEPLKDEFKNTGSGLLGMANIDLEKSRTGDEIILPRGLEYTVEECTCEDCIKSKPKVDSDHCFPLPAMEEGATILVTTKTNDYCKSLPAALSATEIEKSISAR

[9] = biological target: T2, human PD-L1 on cells (CHO-K1/hPDL1; …); assay: FACS, CHO-K1/hPDL1 cells (Experiment 1)
[10] = biological target: T2, human PD-L1 on cells (CHO-K1/hPDL1; …); assay: competition FACS: biotinylated PD-1 to CHO-K1/hPDL1 cells (Experiment 1)
[11] = biological target: T7, human PD-L1-His protein (ACRO Biosystems, #PD1-H5229) (human, UniProt Q9NZQ7 19-238); assay: ELISA, coated hPD-L1-His
T7 construct: extracellular domain; bought; also called hPDL1-His; human PD-L1 extracellular domain recombinant protein
T7 sequence (Q9NZQ7 19-238): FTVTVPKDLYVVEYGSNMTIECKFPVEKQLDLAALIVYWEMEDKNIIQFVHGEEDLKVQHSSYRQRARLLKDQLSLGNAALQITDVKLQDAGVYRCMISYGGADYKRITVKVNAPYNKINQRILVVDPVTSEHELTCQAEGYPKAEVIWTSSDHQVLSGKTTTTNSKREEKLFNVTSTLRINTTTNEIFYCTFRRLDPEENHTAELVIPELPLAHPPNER

[12] = biological target: T8, human BCMA (human, UniProt Q02223 1-184); assay: FACS on NCI-H929 cells
T8 construct: whole, on cells; also called hBCMA; TNFRSF17
T8 sequence (looked up): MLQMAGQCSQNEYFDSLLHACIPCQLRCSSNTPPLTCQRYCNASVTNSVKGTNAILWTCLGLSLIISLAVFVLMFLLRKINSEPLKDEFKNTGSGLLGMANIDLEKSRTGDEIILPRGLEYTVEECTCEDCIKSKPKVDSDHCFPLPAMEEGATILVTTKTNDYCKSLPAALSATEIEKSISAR

[13] = biological target: T9, cynomolgus monkey BCMA (cynomolgus monkey, UniProt A0A2K5UD97 1-183); assay: FACS on HEK293T/cyno BCMA cells
T9 construct: whole, on cells; also called cyno BCMA
T9 sequence (A0A2K5UD97 entry or part of it): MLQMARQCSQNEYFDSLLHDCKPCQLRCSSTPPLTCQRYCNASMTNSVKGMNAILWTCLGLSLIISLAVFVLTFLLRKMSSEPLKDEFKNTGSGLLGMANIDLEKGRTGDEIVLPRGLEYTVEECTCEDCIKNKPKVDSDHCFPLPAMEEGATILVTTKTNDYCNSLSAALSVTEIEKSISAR

[14] = biological target: T8, human BCMA; assay: FACS on HEK293T/hBCMA cells, Experiment 3

T1 sequence (P16410 36-223): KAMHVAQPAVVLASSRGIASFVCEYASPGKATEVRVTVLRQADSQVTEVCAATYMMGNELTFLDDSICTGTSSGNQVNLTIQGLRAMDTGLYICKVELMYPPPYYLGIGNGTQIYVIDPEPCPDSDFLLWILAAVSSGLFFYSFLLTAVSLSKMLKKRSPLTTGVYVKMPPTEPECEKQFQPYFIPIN
T2 sequence (Q9NZQ7 19-290): as the sequence (Q9NZQ7 19-290) above

B1: PR000403 (bispecific antibody, human IgG1, kappa, L234A L235A)
chain 1: EVQLVESGGGLVQPGGSLRLSCAASGFTFSSYWMSWVRQAPGKGLEWVANIKQEGSEKYYVDSVKGRFTISRDNAKNSLYLQMNSLRAEDTAVYYCARDRAVAGAFDIWGQGTMVTVSSASTKGPSVFPLAPSSKSTSGGTAALGCLVKDYFPEPVTVSWNSGALTSGVHTFPAVLQSSGLYSLSSVVTVPSSSLGTQTYICNVNHKPSNTKVDKKVEPKSC
chain 2: DIQMTQSPSTLSASVGDRVTVTCRASQSIYIWLAWYQQKPGKAPNLLIYKASSLETGVPSRFSGSGSGTEFTLTISSLQPDDFATYYCQQYYGSSRTFGQGTKVEIKRTVAAPSVFIFPPSDEQLKSGTASVVCLLNNFYPREAKVQWKVDNALQSGNSQESVTEQDSKDSTYSLSSTLTLSKADYEKHKVYACEVTHQGLSSPVTKSFNRGECEVQLVESGGGLIQPGGSLRLSCAVSGFTVSKNYMSWVRQAPGKGLEWVSVVYSGGSKTYADSVKGRFTISRDNSKNTLYLQMNSLRAEDTAVYYCARAVPHSPSSFDIWGQGTMVTVSSEPKSCDKTHTCPPCPAPEAAGGPSVFLFPPKPKDTLMISRTPEVTCVVVDVSHEDPEVKFNWYVDGVEVHNAKTKPREEQYNSTYRVVSVLTVLHQDWLNGKEYKCKVSNKALGAPIEKTISKAKGQPREPQVYTLPPSREEMTKNQVSLTCLVKGFYPSDIAVEWESNGQPENNYKTTPPVLDSDGSFFLYSKLTVDKSRWQQGNVFSCSVMHEALHNHYTQKSLSLSPGK
notes: PD-L1×CTLA4, structure 1 Fab(CL)-VH-Fc
- EC50 [1]: 20.5 nM
- Maximum MFI [1]: 343 MFI
- EC50 [2]: 0.73 nM
- Maximum MFI [2]: 8090 MFI
- EC50 [3]: 16.3 nM
- Maximum MFI [3]: 1410 MFI
- IC50 [4]: 0.42 nM
- Maximum inhibition rate (%) [4]: 81.4%

B2: PR000701, PD-L1×4-1BB bispecific antibody molecule of FIT-Ig structure (bispecific antibody, human IgG4 S228P, kappa)
chain 1: not shown
chain 2: EVQLVESGGGLVQPGGSLRLSCAASGFTFSSYWMSWVRQAPGKGLEWVANIKQEGSEKYYVDSVKGRFTISRDNAKNSLYLQMNSLRAEDTAVYYCARDRAVAGAFDIWGQGTMVTVSSASTKGPSVFPLAPSSKSTSGGTAALGCLVKDYFPEPVTVSWNSGALTSGVHTFPAVLQSSGLYSLSSVVTVPSSSLGTQTYICNVNHKPSNTKVDKKVEPKSC
chain 3: not shown
notes: FIT-Ig; Fab A of PR000265 (PD-L1), Fab B of PR000197 (4-1BB) close to Fc; no linker; human IgG4
- EC50 [5]: 1.72 nM
- Maximum MFI [5]: 1710 MFI
- EC50 [6]: 10.2 nM
- Maximum MFI [6]: 1340 MFI

B3: PR000404 (bispecific antibody, human IgG1, kappa)
chain 1: EVQLVESGGGLVQPGGSLRLSCAASGFTFSSYWMSWVRQAPGKGLEWVANIKQEGSEKYYVDSVKGRFTISRDNAKNSLYLQMNSLRAEDTAVYYCARDRAVAGAFDIWGQGTMVTVSSASTKGPSVFPLAPSSKSTSGGTAALGCLVKDYFPEPVTVSWNSGALTSGVHTFPAVLQSSGLYSLSSVVTVPSSSLGTQTYICNVNHKPSNTKVDKKVEPKSC
chain 2: not shown
notes: PD-L1×CTLA4, structure 1
- EC50 [1]: 26.9 nM
- Maximum MFI [1]: 339 MFI
- EC50 [2]: 0.78 nM
- Maximum MFI [2]: 8100 MFI
- EC50 [3]: 37.2 nM
- Maximum MFI [3]: 1620 MFI
- IC50 [4]: 0.6 nM
- Maximum inhibition rate (%) [4]: 81.1%

B4: PR000940, anti-BCMA HCAb antibody, clone 1005P10H8 (antibody, human IgG1, V domains shown)
VH: EVQLLESGGGLVQPGGSLRLSCAASGFTFSSYAMIWVRQAPGKGLEWVSGISESGGSTYYADSVKGRFTISRDNSKNTLYLQMNSLRAEDTAVYFCVKDLDDILTGYYKDYWGQGTLVTVSS
notes: Heavy-chain-only antibody (HCAb), human IgG1 Fc, no light chain
- Kd [7]: 0.152 nM
- koff [7]: 6.09e-05 s⁻¹
- kon [7]: 401000 M⁻¹ s⁻¹
- EC50 [8]: 1.85 nM
- Maximum MFI [8]: 91000

B5: PR000070, anti-PD-L1 91G3H5H3, hIgG1(N297A) (antibody, V domains shown)
VH: EVQLVESGGGLVQPGGSLRLSCAASGFTFSSYWMSWVRQAPGKGLEWVANIKQDGSEKYYVDSVKGRFTISRDNAKNSLYLQMNSLRAEDTAVYYCARDRAVAGAFDIWGQGTMVTVSS
VL: DIQMTQSPSTLSASVGDRVTVTCRASQSIYIWLAWYQQKPGKAPNLLIYKASSLETGVPSRFSGSGSGTEFTLTISSLQPDDFATYYCQQYYGSSRTFGQGTKVEIKR
- EC50 [9]: 0.747 nM
- Maximum MFI [9]: 22700 MFI
- IC50 [10]: 0.725 nM
- Maximum inhibition rate (%) [10]: 96.8%
- EC50 [11]: 0.146 nM
- Maximum OD450 [11]: 3.45 OD450

B6: PR003178 (bispecific antibody, human IgG1, lambda, L234A L235A)
light: QAVVTQEPSLTVSPGGTVTLTCRSSTGAVTTSNYANWVQQKPGQAPRGLIGGTNKRAPWTPARFSGSLLGDKAALTLLGAQPEDEAEYFCALWYSNLWVFGGGTKLTVLGQPKAAPSVTLFPPSSEELQANKATLVCLISDFYPGAVTVAWKADSSPVKAGVETTTPSKQSNNKYAASSYLSLTPEQWKSHRSYSCQVTHEGSTVEKTVAPTECS
heavy: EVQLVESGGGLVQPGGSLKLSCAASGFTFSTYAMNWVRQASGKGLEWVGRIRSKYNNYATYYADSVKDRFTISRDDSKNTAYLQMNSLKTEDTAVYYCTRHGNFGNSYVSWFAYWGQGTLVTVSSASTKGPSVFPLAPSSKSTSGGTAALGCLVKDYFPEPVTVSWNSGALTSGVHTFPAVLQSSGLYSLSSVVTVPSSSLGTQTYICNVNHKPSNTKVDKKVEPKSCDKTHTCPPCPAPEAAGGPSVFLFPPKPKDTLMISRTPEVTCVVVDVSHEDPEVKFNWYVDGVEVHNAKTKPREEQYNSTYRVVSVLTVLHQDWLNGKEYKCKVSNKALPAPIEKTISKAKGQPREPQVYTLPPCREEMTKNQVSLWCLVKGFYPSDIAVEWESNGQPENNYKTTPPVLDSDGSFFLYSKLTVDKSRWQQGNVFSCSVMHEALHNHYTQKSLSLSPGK
chain: EVQLVETGGGLIQPGGSLRLSCAASGFTVSDNYMTWVRQAPGKGLEWVSVIFSGGNTYYADSVKGRFTISRDNAKNTLYLQMNSLRAEDTALYYCARRNYDDTRGTDVFDIWGQGTMVTVSSGGGGSGGGGSGGGGSEVQLVETGGGLIQPGGSLRLSCAASGFTVSDNYMTWVRQAPGKGLEWVSVIFSGGNTYYADSVKGRFTISRDNAKNTLYLQMNSLRAEDTALYYCARRNYDDTRGTDVFDIWGQGTMVTVSSASEPKSSDKTHTCPPCPAPEAAGGPSVFLFPPKPKDTLMISRTPEVTCVVVDVSHEDPEVKFNWYVDGVEVHNAKTKPREEQYNSTYRVVSVLTVLHQDWLNGKEYKCKVSNKALPAPIEKTISKAKGQPREPQVCTLPPSREEMTKNQVSLSCAVKGFYPSDIAVEWESNGQPENNYKTTPPVLDSDGSFFLVSKLTVDKSRWQQGNVFSCSVMHEALHNHYTQKSLSLSPGK
- EC50 [12]: 1.23 nM
- Maximum MFI [12]: 15600
- Maximum MFI [13]: 115000
- EC50 [14]: 0.188 nM
- Maximum MFI [14]: 99300

B7: PR003551, PD-L1×4-1BB bispecific antibody molecule of IgG-VH tetravalent symmetric structure (bispecific antibody)
light: DIQMTQSPSTLSASVGDRVTVTCRASQSIYIWLAWYQQKPGKAPNLLIYKASSLETGVPSRFSGSGSGTEFTLTISSLQPDDFATYYCQQYYGSSRTFGQGTKVEIKRTVAAPSVFIFPPSDEQLKSGTASVVCLLNNFYPREAKVQWKVDNALQSGNSQESVTEQDSKDSTYSLSSTLTLSKADYEKHKVYACEVTHQGLSSPVTKSFNRGEC
heavy: EVQLVESGGGLVQPGGSLRLSCAASGFTFSSYWMSWVRQAPGKGLEWVANIKQEGSEKYYVDSVKGRFTISRDNAKNSLYLQMNSLRAEDTAVYYCARDRAVAGAFDIWGQGTMVTVSSASTKGPSVFPLAPSSKSTSGGTAALGCLVKDYFPEPVTVSWNSGALTSGVHTFPAVLQSSGLYSLSSVVTVPSSSLGTQTYICNVNHKPSNTKVDKKVEPKSCDKTHTCPPCPAPEAAGGPSVFLFPPKPKDTLMISRTPEVTCVVVDVSHEDPEVKFNWYVDGVEVHNAKTKPREEQYNSTYRVVSVLTVLHQDWLNGKEYKCKVSNKALGAPIEKTISKAKGQPREPQVYTLPPSREEMTKNQVSLTCLVKGFYPSDIAVEWESNGQPENNYKTTPPVLDSDGSFFLYSKLTVDKSRWQQGNVFSCSVMHEALHNHYTQKSLSLSPGEPKSSDKTHTPPPPPRTEVQLLESGGGLVQPGGSLRLSCAASGFIFSNFAMTWVRQPPEKGLKWVSSINGSGFNTYYTDSVKGRFTISRDNSRNTLYLQMNRLTAEDTAVYFCAKEGSSETDDHYYNVDVWGQGTTVTVSS
notes: Structure 5; IgG PR000265, VH of PR001836 at C-terminus of heavy chain; linker H1_15-RT; human IgG1 (L234A, L235A, P329G)
- EC50 [5]: 1.29 nM
- Maximum MFI [5]: 2150 MFI
- EC50 [6]: 3.15 nM
- Maximum MFI [6]: 1570 MFI
